Key:
Settings in all cases: both partners purified
Tof1-Csm3 complex = target: T1, Tof1-Csm3 complex (S. cerevisiae (budding yeast), UniProt P53840 1-1238; Q04659 1-317); test: pull-down; Flag-tagged Mrc1 (200-600 nM) held on anti-Flag M2 magnetic beads; with or without a first incubation with Tof1-Csm3, then cohesin (tetramer, trimer or Smc1-Smc3 dimer) or GINS; interaction buffer with 100 mM potassium glutamate; elution with 3x Flag peptide or SDS sample buffer; Coomassie staining; benzonase or NaCl added where indicated
T1 construct: Tof1, budding yeast; Csm3, budding yeast; Held on calmodulin dynabeads when used as bait; source: purified as previously described (Yeeles et al. 2017)

Smc1 = target: T2, Smc1 (S. cerevisiae (budding yeast), UniProt P32908 1-1225); test: cross-linking; CLMS with sulfo-SDA; cohesin, Tof1-Csm3 and Chl1 with or without Mrc1 at 300-350 nM, 30 °C 5 min, cross-linker 2 h at 4 °C, UV 365 nm; LC-MS/MS, 1% FDR at residue-pair level; two samples merged
T2 construct: Smc1, budding yeast; the Smc1 chain of m1; Stood in the cross-linking sample as a chain of cohesin; source: purified as part of cohesin, as previously described (Minamino et al. 2018)
T2 sequence (looked up): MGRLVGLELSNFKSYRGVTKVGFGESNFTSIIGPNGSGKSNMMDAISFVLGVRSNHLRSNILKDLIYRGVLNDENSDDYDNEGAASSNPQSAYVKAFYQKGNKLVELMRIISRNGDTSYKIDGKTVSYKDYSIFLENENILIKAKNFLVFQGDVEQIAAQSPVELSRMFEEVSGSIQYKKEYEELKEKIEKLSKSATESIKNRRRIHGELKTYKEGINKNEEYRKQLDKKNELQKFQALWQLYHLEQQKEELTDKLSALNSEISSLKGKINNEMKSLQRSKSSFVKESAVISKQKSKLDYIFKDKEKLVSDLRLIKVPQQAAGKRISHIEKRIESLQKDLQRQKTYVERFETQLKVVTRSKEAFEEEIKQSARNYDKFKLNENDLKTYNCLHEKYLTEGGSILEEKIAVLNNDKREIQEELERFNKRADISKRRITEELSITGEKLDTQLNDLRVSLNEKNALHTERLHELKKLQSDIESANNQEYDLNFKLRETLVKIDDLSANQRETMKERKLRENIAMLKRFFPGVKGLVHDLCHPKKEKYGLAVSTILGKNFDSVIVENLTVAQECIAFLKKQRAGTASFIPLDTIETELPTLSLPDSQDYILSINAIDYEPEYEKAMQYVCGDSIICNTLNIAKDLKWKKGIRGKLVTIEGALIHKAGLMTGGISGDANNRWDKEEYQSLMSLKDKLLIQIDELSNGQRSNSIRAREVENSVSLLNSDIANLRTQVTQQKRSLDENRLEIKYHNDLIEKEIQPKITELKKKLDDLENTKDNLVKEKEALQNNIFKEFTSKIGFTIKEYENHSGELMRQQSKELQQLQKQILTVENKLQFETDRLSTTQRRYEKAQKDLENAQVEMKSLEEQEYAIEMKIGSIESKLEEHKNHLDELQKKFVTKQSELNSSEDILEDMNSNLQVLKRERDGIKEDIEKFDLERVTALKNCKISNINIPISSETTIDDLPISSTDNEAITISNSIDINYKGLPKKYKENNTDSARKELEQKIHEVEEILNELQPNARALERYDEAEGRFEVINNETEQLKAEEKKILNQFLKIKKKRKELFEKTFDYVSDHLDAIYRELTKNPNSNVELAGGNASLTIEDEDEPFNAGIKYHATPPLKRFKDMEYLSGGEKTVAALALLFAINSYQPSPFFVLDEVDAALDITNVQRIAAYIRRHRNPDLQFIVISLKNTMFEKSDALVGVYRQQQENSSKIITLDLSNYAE

Scc3 = target: T3, Scc3 (S. cerevisiae (budding yeast), UniProt P40541 1-1150); test: as above
T3 construct: Scc3, budding yeast; the Scc3 chain of m1; Stood in the cross-linking sample as a chain of cohesin; source: purified as part of cohesin, as previously described (Minamino et al. 2018)
T3 sequence (looked up): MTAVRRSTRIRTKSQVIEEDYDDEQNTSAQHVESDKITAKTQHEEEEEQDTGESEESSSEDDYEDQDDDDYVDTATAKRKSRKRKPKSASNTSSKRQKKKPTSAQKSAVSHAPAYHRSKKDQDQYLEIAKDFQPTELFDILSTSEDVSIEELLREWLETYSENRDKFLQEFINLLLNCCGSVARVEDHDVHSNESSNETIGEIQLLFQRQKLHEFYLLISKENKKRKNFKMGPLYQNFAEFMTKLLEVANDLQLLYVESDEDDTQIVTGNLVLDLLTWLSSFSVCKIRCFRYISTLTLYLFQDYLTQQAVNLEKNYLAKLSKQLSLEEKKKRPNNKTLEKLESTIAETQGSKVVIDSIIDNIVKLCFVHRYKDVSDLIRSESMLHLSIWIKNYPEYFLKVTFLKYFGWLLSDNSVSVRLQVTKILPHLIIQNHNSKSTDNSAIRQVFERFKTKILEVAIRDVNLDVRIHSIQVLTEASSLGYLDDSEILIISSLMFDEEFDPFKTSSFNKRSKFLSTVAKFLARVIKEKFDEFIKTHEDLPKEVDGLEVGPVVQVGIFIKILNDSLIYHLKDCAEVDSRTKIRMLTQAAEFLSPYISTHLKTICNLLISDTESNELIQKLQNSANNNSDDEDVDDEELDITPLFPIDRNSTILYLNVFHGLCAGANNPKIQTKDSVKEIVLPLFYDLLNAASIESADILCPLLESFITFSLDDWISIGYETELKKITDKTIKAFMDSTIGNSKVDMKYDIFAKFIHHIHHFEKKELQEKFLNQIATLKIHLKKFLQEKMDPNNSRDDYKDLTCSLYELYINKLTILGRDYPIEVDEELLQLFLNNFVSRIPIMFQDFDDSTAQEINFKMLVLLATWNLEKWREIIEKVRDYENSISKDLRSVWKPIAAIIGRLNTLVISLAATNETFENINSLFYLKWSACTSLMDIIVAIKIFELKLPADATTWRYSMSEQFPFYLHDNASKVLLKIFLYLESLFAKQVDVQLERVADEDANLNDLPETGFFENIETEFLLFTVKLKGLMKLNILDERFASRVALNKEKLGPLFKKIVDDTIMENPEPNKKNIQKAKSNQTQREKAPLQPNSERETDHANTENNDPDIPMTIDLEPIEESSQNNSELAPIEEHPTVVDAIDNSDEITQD

Measured: binding result

T1 sequence (P53840 whole entry, chain 1 of 2): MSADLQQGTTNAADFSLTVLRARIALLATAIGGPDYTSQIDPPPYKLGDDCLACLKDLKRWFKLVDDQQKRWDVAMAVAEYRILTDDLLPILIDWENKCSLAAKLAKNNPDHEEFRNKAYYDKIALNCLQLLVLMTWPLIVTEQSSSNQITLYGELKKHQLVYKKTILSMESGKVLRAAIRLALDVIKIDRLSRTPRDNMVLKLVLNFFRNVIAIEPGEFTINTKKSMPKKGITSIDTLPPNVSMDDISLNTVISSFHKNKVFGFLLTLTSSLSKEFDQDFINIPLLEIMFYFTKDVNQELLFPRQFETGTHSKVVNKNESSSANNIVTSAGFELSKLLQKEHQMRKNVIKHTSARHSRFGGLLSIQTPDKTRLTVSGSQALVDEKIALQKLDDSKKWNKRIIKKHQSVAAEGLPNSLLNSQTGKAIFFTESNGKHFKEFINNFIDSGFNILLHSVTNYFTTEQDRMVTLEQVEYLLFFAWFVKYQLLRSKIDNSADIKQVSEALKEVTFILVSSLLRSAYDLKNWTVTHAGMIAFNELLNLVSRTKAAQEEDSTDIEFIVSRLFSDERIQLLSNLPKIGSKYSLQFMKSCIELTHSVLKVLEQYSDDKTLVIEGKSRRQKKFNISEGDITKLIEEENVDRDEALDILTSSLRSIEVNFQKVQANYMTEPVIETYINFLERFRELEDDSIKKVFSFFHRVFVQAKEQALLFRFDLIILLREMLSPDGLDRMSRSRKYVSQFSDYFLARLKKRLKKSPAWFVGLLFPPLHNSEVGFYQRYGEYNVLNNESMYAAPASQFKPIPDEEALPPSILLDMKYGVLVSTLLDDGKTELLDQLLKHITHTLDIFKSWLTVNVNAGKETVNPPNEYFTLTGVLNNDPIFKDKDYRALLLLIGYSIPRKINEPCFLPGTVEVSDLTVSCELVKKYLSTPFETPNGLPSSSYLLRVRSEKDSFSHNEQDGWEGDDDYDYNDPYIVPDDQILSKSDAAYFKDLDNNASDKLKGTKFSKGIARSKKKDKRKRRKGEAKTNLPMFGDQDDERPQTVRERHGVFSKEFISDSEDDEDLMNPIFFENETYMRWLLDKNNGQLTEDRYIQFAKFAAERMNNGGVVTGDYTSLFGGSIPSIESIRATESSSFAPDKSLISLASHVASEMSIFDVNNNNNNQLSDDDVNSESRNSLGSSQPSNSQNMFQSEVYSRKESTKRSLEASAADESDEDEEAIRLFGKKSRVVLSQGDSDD
T1 sequence (Q04659 whole entry, chain 2 of 2): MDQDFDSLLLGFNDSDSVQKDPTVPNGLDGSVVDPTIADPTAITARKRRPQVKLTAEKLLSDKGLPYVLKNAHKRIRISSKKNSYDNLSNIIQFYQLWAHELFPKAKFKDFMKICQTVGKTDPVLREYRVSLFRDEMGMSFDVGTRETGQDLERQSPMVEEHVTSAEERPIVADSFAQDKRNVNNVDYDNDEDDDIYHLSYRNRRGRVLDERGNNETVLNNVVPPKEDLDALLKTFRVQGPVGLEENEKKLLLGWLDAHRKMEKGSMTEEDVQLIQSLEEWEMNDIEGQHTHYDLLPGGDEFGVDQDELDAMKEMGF

B1: Mrc1 (natural protein, S. cerevisiae (budding yeast), UniProt P25588 1-1096, looked up)
chain: MDDALHALSSLTAKKRTTTYKKVAVPILDENDNTNGNGPNDIDNPPELTGNGFLFANATLNRVKNRLEGKKAPEQNHNNGKDRSENSLPTQLISNLYDGGEELEKSEVKDNSYSEKNVSSSFTQTQRIPVSIQQDKVFNVPIHSVNDGKPTQLIKEDGLVNETSQALKTPLTTGRPGATQRIDSSGATSQTQPIKSIEPQSQIITTSSNHSNALSPKIPIIPTELIGTSPLFQSIQNRGPDTQMDVPPQTAHDEDKTQAIGIPQATHQEQKTQIDTVAQTLQDEVPHTLKIREIQSELASEDSKREKARNVEYKKPQKPIPTKKFFSKESFLADFDDSSSNEDDDIKLENAHPKPVQNDDELHENKSVELNLTDETRINEKRVPLLSSYANNLKREIDSSKCITLDLDSDSDEYGDDDMDSIKLSKDESVLPISQLSKATILNLKARLSKQNQKLSQRPNKSKDPKVDHNVLLNTLRKASRKQILDHQKEVIETKGLKLEDMAKEKEIVENLLEQEILRNKRIRQKEKRREKLEENDFQLNAHDSGSDSGSESSGFALSGNEIADYESSGSENDNRRESDSEKEDDEIILKQKKSHHVKHIINESDSDTEVEAKPKEKADESLPKRIAINLGHYGDNIGEDTDKFQETNVLDTQNIEEVMAERNTIENEVKDDVYVNEEADEAIRRQLIDKEKLQLKQKEKEHEAKIKELKKRGVTNFFEMEAEESEDEWHGIGGADGEGSDDYDSDLEKMIDDYSKNNFNPHEIREMLAAENKEMDIKMINKILYDIKNGGFRNKRAKNSLELELSDDDEDDVLQQYRLKRRELMRKRRLEIGDDAKLVKNPKSSAFFESMVEDIIEYKNPFGAEEEYNLDITSTATDLDTQDNSINVGDNTGNNEQKPVDQKNKKVIISEDFVQKSLSFLKSNNYEDFETDKELSRIQHGNDEAIEDLYTLKQNSSIKSFTNSQTDSTTSKTVNTIIDLEKRPEDEDEVENGDTSLVGVFKHPSIIKSFASRTDINDKFKEGNKTVKILKSYKTVGSSKASITYMGKTRKLIAPKRKTEGSHRYHHDHHNKKMKMKTKTKSNKLFESGQDSFDN
notes: Mrc1, budding yeast; also called Flag-tagged Mrc1; source: purified as previously described (Yeeles et al. 2017)
binds: all assays above
